Reference: patent US20190330665A1

Biological target: T7 RNA polymerase (UniProt P00573)
Assay: cell-based or functional assay

“catalytically-deactivated variant of T7 lysozyme (LysY) (from UniProt P00806 2-151)” was tested, and the decrease in basal mNeonGreen expression in exponential phase (PT7:mNeonGreen reporter, PurtA:T7pol biosensor strain) was 78%.
